Test [1] concerns the target T1, human integrin avb8 (human).
T1 chain 1: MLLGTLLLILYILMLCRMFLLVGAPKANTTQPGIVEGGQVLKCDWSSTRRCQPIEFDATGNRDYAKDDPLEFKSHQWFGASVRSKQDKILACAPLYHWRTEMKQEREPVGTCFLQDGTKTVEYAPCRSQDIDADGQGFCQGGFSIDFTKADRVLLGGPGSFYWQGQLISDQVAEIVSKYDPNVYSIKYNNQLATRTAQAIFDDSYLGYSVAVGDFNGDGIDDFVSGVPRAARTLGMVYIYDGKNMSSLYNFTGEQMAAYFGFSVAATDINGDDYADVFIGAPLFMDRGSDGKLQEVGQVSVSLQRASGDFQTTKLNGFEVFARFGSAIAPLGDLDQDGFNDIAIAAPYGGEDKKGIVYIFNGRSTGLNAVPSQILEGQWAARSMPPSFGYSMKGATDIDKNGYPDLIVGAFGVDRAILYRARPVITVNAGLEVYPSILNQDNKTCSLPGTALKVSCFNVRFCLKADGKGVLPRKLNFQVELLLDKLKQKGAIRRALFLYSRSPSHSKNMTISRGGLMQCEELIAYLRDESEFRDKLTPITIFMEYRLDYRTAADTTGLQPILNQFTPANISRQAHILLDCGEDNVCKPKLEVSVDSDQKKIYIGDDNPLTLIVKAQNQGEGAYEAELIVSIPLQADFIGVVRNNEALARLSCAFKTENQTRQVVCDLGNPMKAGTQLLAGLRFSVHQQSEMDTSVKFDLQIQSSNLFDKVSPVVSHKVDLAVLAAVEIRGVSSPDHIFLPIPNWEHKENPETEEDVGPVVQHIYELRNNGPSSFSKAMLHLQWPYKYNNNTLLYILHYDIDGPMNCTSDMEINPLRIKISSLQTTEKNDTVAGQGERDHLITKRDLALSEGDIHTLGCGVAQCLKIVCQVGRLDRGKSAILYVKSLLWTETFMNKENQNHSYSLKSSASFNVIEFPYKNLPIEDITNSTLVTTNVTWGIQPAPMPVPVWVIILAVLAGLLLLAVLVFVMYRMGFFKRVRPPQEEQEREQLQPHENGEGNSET
T1 chain 2: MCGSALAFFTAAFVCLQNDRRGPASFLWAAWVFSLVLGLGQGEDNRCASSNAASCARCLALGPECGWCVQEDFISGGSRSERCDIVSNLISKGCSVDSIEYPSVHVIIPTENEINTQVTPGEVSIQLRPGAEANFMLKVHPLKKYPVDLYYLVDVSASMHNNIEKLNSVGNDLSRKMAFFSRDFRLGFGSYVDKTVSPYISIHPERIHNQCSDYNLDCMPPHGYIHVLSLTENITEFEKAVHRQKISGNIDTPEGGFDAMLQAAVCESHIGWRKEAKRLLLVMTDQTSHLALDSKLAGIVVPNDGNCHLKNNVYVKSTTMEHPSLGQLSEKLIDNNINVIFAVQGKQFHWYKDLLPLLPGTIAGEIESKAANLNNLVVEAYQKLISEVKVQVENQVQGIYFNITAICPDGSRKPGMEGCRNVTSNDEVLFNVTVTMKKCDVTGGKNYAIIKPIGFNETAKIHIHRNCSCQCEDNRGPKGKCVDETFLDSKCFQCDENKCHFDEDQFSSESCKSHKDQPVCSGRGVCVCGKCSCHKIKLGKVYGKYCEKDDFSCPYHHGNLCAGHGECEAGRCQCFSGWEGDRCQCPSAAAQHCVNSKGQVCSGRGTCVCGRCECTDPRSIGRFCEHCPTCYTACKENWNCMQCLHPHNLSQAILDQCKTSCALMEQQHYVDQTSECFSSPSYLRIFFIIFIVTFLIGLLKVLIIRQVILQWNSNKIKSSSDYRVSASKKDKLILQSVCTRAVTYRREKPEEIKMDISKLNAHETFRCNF
The test is described as follows: SPR. Background: In SPR one partner is held on a chip, and binding of the other changes the refractive index at the surface.

Test [2] deals with T2, human integrin avb6 (human, UniProt P06756).
T2 chain 1: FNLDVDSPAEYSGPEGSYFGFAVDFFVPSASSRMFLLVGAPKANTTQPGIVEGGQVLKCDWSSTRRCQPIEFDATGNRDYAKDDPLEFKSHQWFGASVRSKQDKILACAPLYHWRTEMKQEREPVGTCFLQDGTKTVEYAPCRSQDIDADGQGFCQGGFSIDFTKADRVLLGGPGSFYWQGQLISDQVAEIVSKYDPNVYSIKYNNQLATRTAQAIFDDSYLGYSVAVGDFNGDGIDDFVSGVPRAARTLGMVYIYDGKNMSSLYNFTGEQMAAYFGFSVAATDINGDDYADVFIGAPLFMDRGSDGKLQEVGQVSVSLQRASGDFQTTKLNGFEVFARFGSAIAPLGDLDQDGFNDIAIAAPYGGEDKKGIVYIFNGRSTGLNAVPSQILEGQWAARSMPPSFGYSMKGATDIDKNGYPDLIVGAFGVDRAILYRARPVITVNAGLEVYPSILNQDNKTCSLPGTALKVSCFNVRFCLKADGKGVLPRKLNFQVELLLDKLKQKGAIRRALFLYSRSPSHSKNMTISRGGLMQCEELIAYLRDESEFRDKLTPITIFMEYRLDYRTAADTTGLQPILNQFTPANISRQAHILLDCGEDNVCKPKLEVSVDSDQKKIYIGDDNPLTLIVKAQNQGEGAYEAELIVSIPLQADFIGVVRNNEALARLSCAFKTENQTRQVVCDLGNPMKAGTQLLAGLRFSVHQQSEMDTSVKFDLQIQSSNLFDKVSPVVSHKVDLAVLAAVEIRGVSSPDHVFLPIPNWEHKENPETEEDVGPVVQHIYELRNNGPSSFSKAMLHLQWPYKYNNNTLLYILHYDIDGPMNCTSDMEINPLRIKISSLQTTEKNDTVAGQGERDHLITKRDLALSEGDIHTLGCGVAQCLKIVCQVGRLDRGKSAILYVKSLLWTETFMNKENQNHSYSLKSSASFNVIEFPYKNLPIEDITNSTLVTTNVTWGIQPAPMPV
T2 chain 2: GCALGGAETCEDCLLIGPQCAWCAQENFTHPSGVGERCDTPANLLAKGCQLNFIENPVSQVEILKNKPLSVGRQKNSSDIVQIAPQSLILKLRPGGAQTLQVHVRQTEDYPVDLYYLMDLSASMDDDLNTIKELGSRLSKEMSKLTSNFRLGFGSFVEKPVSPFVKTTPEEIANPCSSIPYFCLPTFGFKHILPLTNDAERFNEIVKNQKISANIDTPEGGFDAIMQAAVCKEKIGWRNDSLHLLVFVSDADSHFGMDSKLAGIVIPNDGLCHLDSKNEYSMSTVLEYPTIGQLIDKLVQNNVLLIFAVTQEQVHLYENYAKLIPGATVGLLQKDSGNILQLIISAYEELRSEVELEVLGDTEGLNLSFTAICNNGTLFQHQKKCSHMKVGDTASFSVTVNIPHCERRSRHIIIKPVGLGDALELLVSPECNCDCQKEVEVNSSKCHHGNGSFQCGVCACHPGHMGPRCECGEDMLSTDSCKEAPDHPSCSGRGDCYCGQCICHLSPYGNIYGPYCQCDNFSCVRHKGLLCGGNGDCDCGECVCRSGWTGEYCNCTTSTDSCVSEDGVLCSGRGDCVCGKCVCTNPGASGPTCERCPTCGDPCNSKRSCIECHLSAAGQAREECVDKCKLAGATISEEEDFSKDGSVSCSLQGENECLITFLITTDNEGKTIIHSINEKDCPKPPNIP
Nature of the test: SPR.

Test [3] has as its target T3, human integrin avb3 (human, UniProt P06756).
T3 chain 1: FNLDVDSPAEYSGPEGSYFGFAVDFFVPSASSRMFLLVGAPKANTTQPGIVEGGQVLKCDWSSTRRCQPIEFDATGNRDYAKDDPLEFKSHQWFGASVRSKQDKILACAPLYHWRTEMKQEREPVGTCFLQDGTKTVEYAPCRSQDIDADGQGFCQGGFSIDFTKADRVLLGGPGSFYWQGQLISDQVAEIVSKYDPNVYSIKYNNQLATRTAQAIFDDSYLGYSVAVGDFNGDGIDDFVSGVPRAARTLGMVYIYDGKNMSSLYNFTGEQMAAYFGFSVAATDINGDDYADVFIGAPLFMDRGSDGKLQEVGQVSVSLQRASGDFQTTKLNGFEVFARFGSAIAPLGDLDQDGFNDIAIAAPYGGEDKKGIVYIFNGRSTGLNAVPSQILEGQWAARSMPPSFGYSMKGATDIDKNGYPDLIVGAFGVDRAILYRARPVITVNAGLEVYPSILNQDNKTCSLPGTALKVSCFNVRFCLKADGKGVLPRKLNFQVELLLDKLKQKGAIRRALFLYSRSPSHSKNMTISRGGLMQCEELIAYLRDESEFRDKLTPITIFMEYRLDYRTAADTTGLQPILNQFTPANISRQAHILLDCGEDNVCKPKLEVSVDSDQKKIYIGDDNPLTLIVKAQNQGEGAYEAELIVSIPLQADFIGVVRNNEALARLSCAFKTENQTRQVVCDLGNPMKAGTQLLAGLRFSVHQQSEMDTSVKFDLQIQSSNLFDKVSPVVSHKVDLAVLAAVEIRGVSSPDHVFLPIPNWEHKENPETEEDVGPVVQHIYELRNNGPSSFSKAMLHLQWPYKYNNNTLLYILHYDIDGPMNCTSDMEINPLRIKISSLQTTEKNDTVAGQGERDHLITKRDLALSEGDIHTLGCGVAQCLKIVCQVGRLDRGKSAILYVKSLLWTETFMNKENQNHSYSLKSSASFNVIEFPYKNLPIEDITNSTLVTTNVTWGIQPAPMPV
T3 chain 2: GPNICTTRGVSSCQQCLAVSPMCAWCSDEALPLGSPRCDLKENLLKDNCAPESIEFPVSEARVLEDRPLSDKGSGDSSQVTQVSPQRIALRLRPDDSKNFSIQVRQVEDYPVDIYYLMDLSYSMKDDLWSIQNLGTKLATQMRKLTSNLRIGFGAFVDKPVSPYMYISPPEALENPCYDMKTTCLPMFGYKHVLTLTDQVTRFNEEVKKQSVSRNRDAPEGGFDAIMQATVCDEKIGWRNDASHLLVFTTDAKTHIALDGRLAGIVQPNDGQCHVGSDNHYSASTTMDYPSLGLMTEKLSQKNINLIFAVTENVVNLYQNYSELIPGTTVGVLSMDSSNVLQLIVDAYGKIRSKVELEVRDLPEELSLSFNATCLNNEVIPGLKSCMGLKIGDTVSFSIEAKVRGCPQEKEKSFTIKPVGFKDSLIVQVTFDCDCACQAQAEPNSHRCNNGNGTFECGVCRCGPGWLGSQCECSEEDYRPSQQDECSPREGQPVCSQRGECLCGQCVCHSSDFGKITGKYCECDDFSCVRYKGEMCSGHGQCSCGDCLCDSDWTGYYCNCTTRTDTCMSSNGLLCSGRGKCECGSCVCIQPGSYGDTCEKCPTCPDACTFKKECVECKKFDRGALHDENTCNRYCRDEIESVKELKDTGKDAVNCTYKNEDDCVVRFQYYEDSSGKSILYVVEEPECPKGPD
Nature of the test: SPR.

Test [4] deals with T2, human integrin avb6. The test is described as follows: ELISA. (In general: In an ELISA, binding on a coated surface is turned into a signal by an enzyme label.)

B1: ADWA11 VH03/VK02 Fab (antibody, V domains shown)
VH: EVQLVESGGGLVQPGGSLRLSCAASGFNIKDYYMNWVRQAPGKGLEWVGWIDPDNGNTIYDPKFQGRFTISADNAKNSAYLQMNSLRAEDTAVYYCARRLLMDYWGQGTLVTVSS
VL: DIQMTQSPSSLSASVGDRVTITCRSTKSLLHFNGNTYLFWFQQKPGKAPKRLIYYMSNLASGVPSRFSGSGSGTDFTLTISSLQPEDFATYYCMQSLEYPFTFGQGTKVEIK
As a reminder, the Kd is the concentration at which binding is half-saturated. Low values mean tighter binding, high ones weaker binding. B1 registered a Kd in test [1] of 0.37 nM.

B2: ADWA11 VH05-2/VK01 antibody (antibody, V domains shown)
VH: EVQLVESGGGLVQPGGSLRLSCAASGFNIKDYYMNWVRQAPGKGLEWVGWIDPDNGNTIYDPKFQGRFTISADTSKNSAYLQMNSLRAEDTAVYYCARRLLMDYWGQGTLVTVSS
VL: DIQMTQSPSSLSASVGDRVTITCRSTKSLLHFNGNTYLFWYQQKPGKAPKRLIYYMSNLASGVPSRFSGSGSGTDFTLTISSLQPEDFATYYCMQSLEYPFTFGQGTKVEIK
For the molecule B2, the binding result in test [2] and in test [3] was “no binding” in each case.

B3: ADWA11 VH02/VK01 Fab (antibody, V domains shown)
VH: EVQLVESGGGLVQPGGSLRLSCAASGFNIKDYYMNWVRQAPGKGLEWVAWIDPDNGNTIYDPKFQGRFTISADNAKNSLYLQMNSLRAEDTAVYYCARRLLMDYWGQGTLVTVSS
VL: DIQMTQSPSSLSASVGDRVTITCRSTKSLLHFNGNTYLFWYQQKPGKAPKRLIYYMSNLASGVPSRFSGSGSGTDFTLTISSLQPEDFATYYCMQSLEYPFTFGQGTKVEIK
B3 displayed a Kd in test [1] of 1.89 nM.

B4: ADWA11 VH01/VK01 Fab (antibody, V domains shown)
VH: EVQLVESGGGLVQPGGSLRLSCAASGFNIKDYYMNWVRQAPGKGLEWVAWIDPDNGNTIYDPKFQGRFTISRDNAKNSLYLQMNSLRAEDTAVYYCARRLLMDYWGQGTLVTVSS
VL: DIQMTQSPSSLSASVGDRVTITCRSTKSLLHFNGNTYLFWYQQKPGKAPKRLIYYMSNLASGVPSRFSGSGSGTDFTLTISSLQPEDFATYYCMQSLEYPFTFGQGTKVEIK
In test [1], B4 displayed a Kd of 6.86 nM.

B5: ADWA11 VH03/VK01 Fab (antibody, V domains shown)
VH: EVQLVESGGGLVQPGGSLRLSCAASGFNIKDYYMNWVRQAPGKGLEWVGWIDPDNGNTIYDPKFQGRFTISADNAKNSAYLQMNSLRAEDTAVYYCARRLLMDYWGQGTLVTVSS
VL: DIQMTQSPSSLSASVGDRVTITCRSTKSLLHFNGNTYLFWYQQKPGKAPKRLIYYMSNLASGVPSRFSGSGSGTDFTLTISSLQPEDFATYYCMQSLEYPFTFGQGTKVEIK
Consider B5, for which, in test [1], the Kd was under 0.1 nM.

B6: Mouse hybridoma ADWA-11 IgG (antibody, V domains shown)
VH: EVQLQQSGAELVRPGAFVKLSCKASGFNIKDYYMNWVLQRPEQGLEWIGWIDPDNGNTIYDPKFQGKASITADTSSNTAYLQLSSLTSEDTAVYYCARRLLMDYWGQGTSVTVSS
VL: DIVMTQAAPSVPVTPGESVSISCRSTKSLLHFNGNTYLFWFLQRPGQSPQRLIYYMSNLASGVPDRFSGRGSGTDFTLRISRVEAEDVGVYYCMQSLEYPFTFGTGTKLEIK
Take B6: the binding result in test [3] and in test [4] was “no binding” in each case.

For the origin of these results see patent US20220289850 (published 2022).
